Key:
[1] = target: T1, hPRLR.mFc (soluble dimeric human PRLR) (Homo sapiens, UniProt P16471); experiment: Surface plasmon resonance (Biacore T200), mAb-capture format; format: binding; conditions: antibody-capture format, analyte hPRLR.mFc
T1 construct: dimeric (hPRLR.mFc)
Protocol: (§1) Antibodies, expressed as human IgG1 Fc “[…]” designations), were captured onto an anti-human Fc sensor surface (mAb-capture format), and soluble monomeric (hPRLR.mmh; SEQ ID NO:401, or macaca fascicularis (mf) PRLR.mmh; SEQ ID NO:403) or dimeric (hPRLR.mFc; SEQ ID NO:402) PRLR protein was injected over the sensor surface. Measurements were conducted on a T200 Biacore instrument. Kinetic association (ka) and dissociation (kd) rate constants were determined by processing and fitting the data to a 1:1 binding model using Scrubber 2.0 curve fitting software.

[2] = target: T2, hPRLR.mmh (soluble monomeric human PRLR) (Homo sapiens, UniProt P16471); experiment: as above; format: binding; conditions: antibody-capture format, analyte hPRLR.mmh
T2 construct: soluble monomeric (hPRLR.mmh); mmh (myc-myc-hexahistidine)
Protocol: as §1

[3] = target: mfPRLR.mmh (monomeric macaca fascicularis PRLR); experiment: as above; format: binding; conditions: antibody-capture format, analyte mfPRLR.mmh
Protocol: as §1

HEK293/mfPRLR = experiment: FACS cell surface binding; design: species or system macaca fascicularis
Protocol: The ability of anti-PRLR antibodies to selectively bind PRLR expressing cell lines was next determined. Human, monkey macaca fascicularis, and mouse PRLR constructs with an HA tag were stably introduced into HEK293 cells via Lipofectamine 2000-mediated transfection methodology. Transfectants (HEK293/hPRLR, HEK293/mfPRLR and HEK293/mPRLR) were selected for at least 2 weeks in complete growth media plus G418.
Cell surface expression of PRLR on 293/hPRLR cells was assessed via FACS analysis. Briefly, 1×10^5 cells were incubated with 10 μg/ml of Control antibody I, or an isotype control for 30 min on ice in antibody dilution buffer. Following two washes with antibody dilution buffer, cells were incubated with 10 μg/ml of PE conjugated anti-human secondary antibodies for 30 min on ice. Following two additional washes, samples were run on a Hypercyt® cytometer and analyzed in FORECYT™ (IntelliCyt, Albuquerque, N. Mex.). The mean fluorescence intensities (MFI) were expressed as fold change above isotype control levels (background). FACS binding confirmed that Control I selectively bound to 293/hPRLR expressing cells with MFIs that were 30 fold above background (isotype ctrl) levels and less than 2 fold binding on parental cells.
Next, the anti-PRLR antibodies of the present invention were tested via FACS for selective binding to the engineered overexpressing PRLR HEK293 cell lines, as well as to non-expressing HEK293 cells and a native PRLR expressing cell line (T47D).

[4] = test system: HEK293/hPRLR/STAT5-Luc cells (human PRLR); experiment: STAT5-Luc luciferase reporter assay, blocking of PRL-mediated receptor activation; format: cell-based; conditions: for Percent Blocking at 100 nM Antibody: 5 nM PRL; for IC50: 5 nM constant PRL, 6 hr at 37° C.
Source text: The ability of anti-PRLR antibodies to block prolactin (PRL)-mediated receptor activation was examined in a luciferase-based reporter assay. The endocrine hormone PRL binds to the extracellular domain of its cognate receptor PRLR, triggering rapid homodimerization and activating several downstream signaling cascades.
In this example, an engineered cell line was used to determine the ability of anti-PRLR antibodies to block ligand activation of the PRLR receptor. Briefly, HEK293/hPRLR/STAT5-Luc cell lines with stable incorporation of a human PRLR expression cassette and the STAT5-dependent luciferase reporter were generated via sequential rounds of Lipofectamine® 2000-mediated transfection (LifeTechnologies, Carlsbad, Calif.). Cells were selected for at least two weeks in the presence of 500 μg/mL G418 (hPRLR) and 100 μg/mL hygromycin B (STAT5-Luc). The STAT5-Luc assay utilized 2×10^5 HEK293/hPRLR/STAT5-Luc cells seeded in complete growth medium on PDL-coated 96 well plates grown overnight at 37° C., 5% CO2. To generate antibody inhibition curves, cells were incubated (6 hr at 37° C.) with serially diluted anti-human PRLR antibodies (100 nM to 24 pM) in the presence of 5 nM constant PRL before recording signal. PRL dose response curves were generated by the addition of serially diluted PRL (100 nM to 24 pM) to cells and recording signal after a 6 hr (37° C.) incubation in the absence of antibodies. The ability of the antibodies to activate PRLR in the absence of ligand was also assessed.
Luciferase activity was measured with ONE-GLO™ reagent (Promega, Madison, Wis.). Relative light units (RLUs) were measured on a Victor luminometer (Perkin Elmer, Shelton, Conn.). EC50/IC50 values were determined from a four-parameter logistic equation over an 8-point response curve using GraphPad Prism. Percent blocking and percent activation are reported for the highest antibody dose.

Chain of mfPRLR.mmh (monomeric macaca fascicularis PRLR) (as listed by the source): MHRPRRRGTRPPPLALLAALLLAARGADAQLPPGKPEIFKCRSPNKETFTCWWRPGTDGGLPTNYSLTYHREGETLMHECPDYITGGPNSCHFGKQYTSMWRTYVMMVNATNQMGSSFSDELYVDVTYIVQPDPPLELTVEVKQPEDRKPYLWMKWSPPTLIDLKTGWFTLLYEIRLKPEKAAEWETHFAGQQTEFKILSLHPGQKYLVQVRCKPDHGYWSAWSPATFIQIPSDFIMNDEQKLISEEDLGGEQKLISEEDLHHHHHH
T1 sequence (P16471 with tags, fused parts or gaps): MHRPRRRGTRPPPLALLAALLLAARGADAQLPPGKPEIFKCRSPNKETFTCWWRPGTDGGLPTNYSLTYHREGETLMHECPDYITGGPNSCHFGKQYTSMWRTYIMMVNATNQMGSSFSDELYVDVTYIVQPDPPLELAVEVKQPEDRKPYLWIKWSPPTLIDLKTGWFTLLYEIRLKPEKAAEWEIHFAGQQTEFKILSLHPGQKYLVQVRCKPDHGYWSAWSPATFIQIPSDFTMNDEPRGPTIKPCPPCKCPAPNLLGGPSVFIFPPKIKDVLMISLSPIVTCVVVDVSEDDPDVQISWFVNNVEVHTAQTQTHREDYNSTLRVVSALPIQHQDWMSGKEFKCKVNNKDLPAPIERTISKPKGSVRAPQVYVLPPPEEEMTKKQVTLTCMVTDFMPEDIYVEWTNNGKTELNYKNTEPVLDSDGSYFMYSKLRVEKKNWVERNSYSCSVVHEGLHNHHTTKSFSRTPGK
T2 sequence (P16471 with tags, fused parts or gaps): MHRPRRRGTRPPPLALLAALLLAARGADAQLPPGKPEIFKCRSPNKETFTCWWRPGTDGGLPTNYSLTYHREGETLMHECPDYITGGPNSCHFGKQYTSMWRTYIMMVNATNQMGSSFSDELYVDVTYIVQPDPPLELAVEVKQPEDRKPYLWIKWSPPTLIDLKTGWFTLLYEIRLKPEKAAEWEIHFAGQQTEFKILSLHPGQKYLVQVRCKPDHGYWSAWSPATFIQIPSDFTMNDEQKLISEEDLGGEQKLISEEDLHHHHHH
Chain of HEK293/mfPRLR (as listed by the source): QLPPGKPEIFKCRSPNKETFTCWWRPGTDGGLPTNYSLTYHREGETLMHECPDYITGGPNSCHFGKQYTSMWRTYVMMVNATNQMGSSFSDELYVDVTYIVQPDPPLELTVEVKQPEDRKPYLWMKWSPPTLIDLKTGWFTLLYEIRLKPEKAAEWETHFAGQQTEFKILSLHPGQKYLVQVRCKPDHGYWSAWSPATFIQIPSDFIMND

Row | Kd ([1]; 25° C.) [nM] | T½ ([1]; 25° C.) [min] | Kd ([1]; 37° C.) [nM] | T½ ([1]; 37° C.) [min] | Kd ([2]; 25° C.) [nM] | T½ ([2]; 25° C.) [min] | Kd ([2]; 37° C.) [nM] | T½ ([2]; 37° C.) [min] | Kd ([3]; 25° C.) [nM] | Kd ([3]; 37° C.) [nM] | Molecule | T½ ([3]; 25° C.) [min] | T½ ([3]; 37° C.) [min] | FACS Cell Binding (Fold Above Background) (HEK293/mfPRLR) | Percent Blocking at 100 nM Antibody [4] [%] | IC50 [4] [nM]
1 | 0.0906 | 114.4 | 0.102 | 82.6 | 1.59 | 13.4 | 4.04 | 3.7 | 1.75 | 5.24 | H1H6976N: human IgG1 Fc form of H2M6976N; anti-PRLR; HCVR/LCVR SEQ ID NOs 386/394 (antibody, V domains shown, human IgG1 Fc) VH: EVQLLESGGGFVQPGGSLRLSCAASGFTFSSYAMSWVRQAPGKGLEWVSIISSNGRYTYYADSVKGRFTISRDNSKNTLYLQMNSLRAEDTAVYYCATVTGDWFDPWGQGTLVTVSS VL: DIQLTQSPSFLSASVGDRVTITCWASQDIDISLAWYQQKPGKAPKLLIYAASTLQSGVPSKFSGSGSGTDFTLTISSLQPEDFSTYYCQQLNSYPITFGQGTRLDIK | 14.2 | 3.7 | 29 | 23 | 
2 | 0.0992 | 179 | 0.128 | 112 | 0.259 | 64 | 0.48 | 25 | 0.511 | 0.823 | H1H6762P: anti-PRLR antibody, human IgG1 Fc; HCVR/LCVR SEQ ID NOs 2/10 (antibody, V domains shown, human IgG1 Fc) VH: QVQLVESGGGVVQPGRSLRLSCAASGFTFSHYGMVWVRQPPGKGLEWVALISFDGTTKYYADSVKGRFTISRDNSKNTLYLQMNSLRAEDTAVYFCVGAIAAAAFDLWGRGTLVTVSS VL: EIVMTQSPATLSVSPGERATLSCRASQSVSSDLAWYQQKPGQAPRLLIYSASARATGIPARFTGSGSGTDFTLTISSLQSEDFAVYYCQQYNNWPMYTFGQGTKLEIK | 55 | 21 | 26 | 100 | 0.0219
3 | 0.0392 | 339 | 0.128 | 112 | 0.124 | 102 | 0.292 | 32 | 0.254 | 0.0504 | H1H6765P: anti-PRLR antibody, human IgG1 Fc; HCVR/LCVR SEQ ID NOs 18/26 (antibody, V domains shown, human IgG1 Fc) VH: EVQLVESGGGVVRPGGSLRLSCVGSGFSFDDHGMNWVRQGPGKGLEWVSGFNWNGGSTNYAESVKGRFTISRDNARNSLFLQMNSLRAEDTALYYCVRGRSGWFNDAFDVWGPGTMVTVSS VL: EIVLTQSPGTLSLSPGERATLSCRASQTINSNYLAWYRQKPGQTPRLLIYGTSSRATGIPDRFSGSGSGTDFSLTISRLEPEDFAVFYCQQYAGLPTFGPGTKVDIK | 86 | 215 | 27 | 100 | 0.033
4 | 0.11 | 259.3 | 0.107 | 118.8 | 1.35 | 34.8 | 2.2 | 12.4 | 3.08 | 4.54 | H1H6967N: human IgG1 Fc form of H2M6967N; anti-PRLR; HCVR/LCVR SEQ ID NOs 354/362 (antibody, V domains shown, human IgG1 Fc) VH: EVQLVESGGDLVHPGRSLRLSCAASGFPFDEYAMHWVRQVPGKGLEWVSGISWSNNNIGYADSVKGRFTISRDNAKNSLYLQMNSLRPEDTAFYYCAKSGIFDSWGQGTLVTVSS VL: EIVMTQSPATLSVSPGERATLSCRASQSVSRDLAWYQQKPGQAPRLLIHGASTRATGIPARFSGSGSGAEFTLIISSLQSEDFAVYYCQQYNNWPLTFGGGTKVEIK | 19.7 | 7.1 | 28 | 100 | 0.768
5 | 0.0684 | 587.8 | 0.184 | 163.0 | 0.49 | 157.1 | 1.29 | 42.3 | 1.14 | 2.27 | H1H6975N: human IgG1 Fc form of H2M6975N; anti-PRLR; HCVR/LCVR SEQ ID NOs 370/378 (antibody, V domains shown, human IgG1 Fc) VH: EVHLVESGGGLVQPGGSLRLSCAASGFTFSSYEMNWVRQTPGKGLEWISHISSRSVIIYYADSVKGRFTISRDNAKNSLFLQMNSLRAEDTAVYFCAGITIFGIPEYWGQGTLVTVSS VL: EIVLTQSPATLSLSPGERATLSCRASQSVSSYFAWYQQKPGQAPRLLIYDASSRATGIPTRFSGSGSGTDFTLTISSLEPEDFAVYYCQQRSSWPITFGQGTRLEIK | 88.2 | 36.4 | 29 | 100 | 0.241
6 | 0.112 | 129 | 0.138 | 60 | 1.14 | 14 | 2.95 | 4 | 1.77 | 5 | H1H6774P: anti-PRLR antibody, human IgG1 Fc; HCVR/LCVR SEQ ID NOs 34/42 (antibody, V domains shown, human IgG1 Fc) VH: EVQLVESGGGLAQPGGSLRLSCVASGFTFSTYWMSWVRQAPGKGLDWVGNIKQDGSEQNYVDSVRGRFTISRDNAKNSLFLQMNSLRAEDTGVYYCATLLTKGDYWGQGTLVTVSS VL: DIQMTQSPSSLSASVGDSVTITCRASQDISNYLDWFQQKPGKAPKSLIYAASILQGGVPSRFSGSGYGTDFTLTISSLQPEDFATYYCRQYKTYPFTFGPGTKVDIK | 13 | 3 | 29 | 0 | 
